To fix the notation:
T1: GST-Lst8 (Drosophila melanogaster, UniProt Q9W328 1-313)
T1 construct: Lst8 (lethal with SEC13 protein 8), Drosophila melanogaster; full-length cDNA cloned into pGEX-6p-2; Held on glutathione beads as bait; source: E. coli ArcticExpress (DE3), purified on glutathione-Sepharose 4B beads
T1 sequence (looked up): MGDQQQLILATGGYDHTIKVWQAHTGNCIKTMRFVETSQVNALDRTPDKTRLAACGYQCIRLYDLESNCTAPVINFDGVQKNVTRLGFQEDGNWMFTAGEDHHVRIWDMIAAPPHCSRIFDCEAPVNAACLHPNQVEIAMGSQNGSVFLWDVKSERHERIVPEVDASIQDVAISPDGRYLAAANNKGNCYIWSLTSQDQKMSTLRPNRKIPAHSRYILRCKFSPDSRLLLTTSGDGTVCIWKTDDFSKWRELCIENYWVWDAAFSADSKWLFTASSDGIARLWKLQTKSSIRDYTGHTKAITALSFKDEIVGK

B1: 6XHis-dGOLPH3 (natural protein, Drosophila melanogaster, UniProt Q9VQ93 1-294, looked up)
chain: MNRSDGLVRRSVKPRENGGAEGGLNANTPDDNQDALDNLKDQEDNIDDGDSKETRLTLMEEVLLLGLKDKEGYTSFWNDCISSGLRGCILIELGLRGRVMIEKSGMRRRGLCTRKLILKSDQQTGDVLLDEALKHIKETDPPETVQSWIEYLSGETWNPLKLRYQLKNVRERLAKNLVEKGVLTTEKQNFLLFDMTTHPLSDNVVKCRLVKKIQDSVLSKWVNDPQRMDKRMLALIFLAHASDVIENAFAPLNDDDYEVAMKRVRELLDLDFEAESAKPNANEILWAVFMAFTK
notes: Golgi phosphoprotein 3 (dGOLPH3), Drosophila melanogaster; source: bacterially expressed
B2: GST-Tctp (Drosophila Translationally controlled tumor protein) (natural protein, Drosophila melanogaster, UniProt Q9VGS2 1-172, looked up)
chain: MKIYKDIITGDEMFADTYKMKLVDDVIYEVYGKLITRQGDDIKLEGANASAEEADEGTDITSESGVDVVLNHRLTECFAFGDKKSYTLYLKDYMKKVLAKLEEKSPDQVDIFKTNMNKAMKDILGRFKELQFFTGESMDCDGMVALVEYREINGDSVPVLMFFKHGLEEEKC
notes: Translationally controlled tumor protein (Tctp), Drosophila melanogaster; full-length cDNA cloned into pGEX-6p-2; Held on glutathione beads as bait; source: E. coli BL21-Codon Plus, purified on glutathione-Sepharose 4B beads

One assay has as its target T1, GST-Lst8. Briefly: pull-down; direct interaction assay: bacterially expressed 6XHis-dGOLPH3 incubated with GST or GST-tagged proteins on glutathione-Sepharose 4B beads, 1 h, 4 °C; wash 25 mM Tris-HCl pH 7.4, 150 mM NaCl, 1% NP-40, 1 mM EDTA; western blot. Particulars: both partners purified.
For the assay “6XHis-dGOLPH3”, the target named is B1. The assay is described as above. Particulars: both partners purified.

With B1, the binding result in the assay with GST-Lst8 was “binds”.

B2: the binding result with 6XHis-dGOLPH3 is on record as “binds”.

Source of the values: publication PMC9701223, “GOLPH3 protein controls organ growth by interacting with TOR signaling proteins in Drosophila” (Cell Death & Disease, 2022).
